Where “and” joins values, the source holds several entries; their conditions need not be identical. Equal values may be shown once. Read-outs that look alike come from different tables or passages of the source.
Legend:
[1] = target: HCV E2 ectodomain (eE2), full length, residues 384-656, genotype J6 (HCV genotype J6); test: ITC
[2] = target: HCV E2 ectodomain (eE2), full length, residues 384-656, genotype J6 (HCV genotype J6); test: ITC; remark: listed apart in the source

B1: human CD81 large extracellular loop (hCD81-LEL), residues 112-202 (domain or fragment)
chain: GFVNKDQIAKDVKQFYDQALQQAVVDDDANNAKAVVKTFHETLDCCGSSTLTALTTSVLKNNLCPSGSNIISNLFKEDCHQKIDDLFSGKL
Kd [1]: 773 nM
Kd [2]: 681 nM
dH [2]: -7.89 kcal/mol and -6.65 kcal/mol
stoichiometry N [2]: 0.99 and 0.86

Source: publication PMC8542614
